By Kd is commonly meant the constant that tells how readily two partners part at equilibrium.

To fix the notation:
T1: recombinant human Notch1 protein (human, UniProt P46531 1426-1731, limits assumed)
T1 construct: also called antigen
T1 sequence (looked up): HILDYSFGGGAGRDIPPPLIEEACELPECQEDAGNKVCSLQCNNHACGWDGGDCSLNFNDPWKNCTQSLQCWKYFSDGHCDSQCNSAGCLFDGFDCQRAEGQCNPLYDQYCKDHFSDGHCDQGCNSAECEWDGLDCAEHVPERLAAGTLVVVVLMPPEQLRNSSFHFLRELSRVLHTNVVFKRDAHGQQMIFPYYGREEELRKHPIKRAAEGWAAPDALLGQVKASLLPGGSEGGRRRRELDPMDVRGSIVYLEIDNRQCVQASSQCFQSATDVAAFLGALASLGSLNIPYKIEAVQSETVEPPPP

B1: humanized antibody 52M51H4L3 (antibody, human IgG2, lambda, V domains shown)
VH: QVQLVQSGAEVKKPGASVKISCKVSGYTLRGYWIEWVRQAPGKGLEWIGQILPGTGRTNYNEKFKGRVTMTADTSTDTAYMELSSLRSEDTAVYYCARFDGNYGYYAMDYWGQGTTVTVSS
VL: SQAVVTQEPSLTVSPGGTVTLTCRSSTGAVTTSNYANWFQQKPGQAPRTLIGGTNNRAPGVPARFSGSLLGGKAALTLSGAQPEDEAEYYCALWYSNHWVFGGGTKLTVLG
notes: Heavy chain 52M51-H4 (human IgG2 constant region) with light chain 52M51 L3 (human IgLC1 constant region); also called humanized variant of 52M51; ATCC PTA-9549
B2: humanized antibody 52M51H4L4 (antibody, human IgG2, lambda, V domains shown)
VH: QVQLVQSGAEVKKPGASVKISCKVSGYTLRGYWIEWVRQAPGKGLEWIGQILPGTGRTNYNEKFKGRVTMTADTSTDTAYMELSSLRSEDTAVYYCARFDGNYGYYAMDYWGQGTTVTVSS
VL: SQTVVTQEPSFSVSPGGTVTLTCRSSTGAVTTSNYANWYQQTPGQAPRTLIGGTNNRAPGVPDRFSGSILGNKAALTITGAQADDESDYYCALWYSNHWVFGGGTKLTVLG
notes: Heavy chain 52M51-H4 (human IgG2 constant region) with light chain 52M51 L4 (human IgLC1 constant region)
B3: murine monoclonal antibody 52M51 (antibody, mouse IgG1, V domains shown)
VH: QVQLQQSGAELMKPGASVKISCKAAGYTMRGYWIEWIKQRPGHGLEWIGQILPGTGRTNYNEKFKGKATFTADTSSNTANMQLSSLTSEDSAVYYCARFDGNYGYYAMDYWGQGSSVTVSS
VL: QAVVTQESALTTSPGETVTLTCRSSTGAVTTSNYANWVQEKPDHLFTGLIGGTNNRAPGVPARFSGSLIGDKAALTITGAQTEDEAIYFCALWYSNHWVFGGGTKLTVLG
notes: Hybridoma-derived mouse antibody; also called anti-Notch1 antibody 52M51; ATCC PTA-9405

The target in this assay is T1, recombinant human Notch1 protein. Kind of assay: SPR (Biacore 2000), recombinant human Notch1 amine-coupled to CM5 chip, antibody injected, global fit. The protocol:
The affinities for human and mouse Notch1 were determined using a Biacore 2000 instrument. Briefly, recombinant human and mouse Notch1 proteins were immobilized on a CM5 chip using standard amine based chemistry (NHS/EDC). Different antibody concentrations were injected over the protein surfaces and kinetic data were collected over time. The data was fit using the simultaneous global fit equation to yield dissociation constants (KD, nM) for each Notch1 (Table 2).
Take B1: the Kd came out at 4.33 nM.

Consider B2, for which the Kd came to 7.35 nM.

For B3, the Kd stood at 2.86 nM.
